Article PMC4598023 (PLoS ONE, 2015)
Bridges are numbered along the chain shown (N, C = ends). Where no end group is shown, it is not given here.

Tests used:
[1] = Pharmacokinetics after subcutaneous administration in mice (serum amylin by ELISA); assay type: in vivo
Description: Swiss male mice (8 weeks old; n = 4 per group) were administrated of free or monoPEGylated human amylin (both at 400 μg peptide / kg body weight) by subcutaneous route. At the indicated time interval, blood was collected with glass capillary tubes from retro-orbital access and the serum was separated. The concentration of amylin in the plasma was evaluated by ELISA (Merck Millipore, cat # EZHA-52K) by following the manufacturer protocol. The sensitivity of the ELISA assay kit for the monoPEGylated human amylin product was similar to the non-conjugated human amylin as inferred from control analytical curves. In case needed, the mice plasma samples were diluted accordingly in order to achieve the desired concentration range of the ELISA kit. Glucagon was evaluated from the same serum samples, by using an ELISA kit (Merck Millipore, Cat # EZGLU-30K) according to instructions of the manufacturer.
Continuous lines are best fitting of single-exponential decay function to data. b) Modulation of glucagon. […] The raw data can be found in S2 File.

[2] = Amylin aggregation kinetics by ThT fluorescence, up to 12 h at varying pH; assay type: physicochemical; settings: 50 μM peptide, 10 mM buffer, 20 μM ThT, 2% DMSO, 25°C
Description: In this case, at the indicated time 160 μL sample were mixed with 40 μL ThT 100 μM. In both cases the thioflavin T fluorescence was measured by setting excitation at 450 nm and emission at 482 nm. […] The aggregation curves were fitted using a 4 parameter logistic function and the t1/2, elongation rate and lag time were estimated as described elsewhere [65].

[3] = target: T1, Fluorescein-Labelled Murine Amylin (Mus musculus, UniProt P12968); assay: Isothermal binding assay, fluorescence anisotropy (amylin self-assembly); settings: PBS pH 7.4, 25°C; for Anisotropy: 50 nM labelled murine amylin, mean of five measurements
T1 sequence (P12968 38-74 limits assumed): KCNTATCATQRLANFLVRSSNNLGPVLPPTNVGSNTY
Description: (§1) The proteins (CTR, RAMP and murine amylin) were labeled with fluorescein isothiocyanate (FITC; Sigma-Aldrich; 0.2 mM final concentration, from stock in DMSO at 5 mM freshly prepared) in 20 mM Na2HPO4, 300 mM NaCl, pH 7.0, for 60 min at 25°C protected from light. The reaction was quenched by adding an excess of Tris-HCl. The free fluorescein was removed by chromatography with a Sephadex G25 desalting column (GE Healthcare, Brazil). The labeling efficiency, final yield and protein quantification were calculated as described elsewhere. The labeling efficiency was below 1 mol FITC:1 mol protein for all labeling procedures. Labeled proteins were stored until use protected from light at -20°C for no longer than 3 months.
(§2) The fluorescence measurements were conducted in a Spectramax M5 (Molecular Devices) microplate reader, with excitation and emission set at 480 nm and 520 nm respectively, with cut-off filter 515 nm. The results represent the mean and the standard error of the mean (SEM) of five measurements. Binding data analysis was performed with SigmaPlot 12.5 (Systat Software, Inc., CA, USA).
(§3) Fig 4 Amylin self-assembly and interaction with co-receptors. […] Assays were conducted in PBS, pH 7.4, 25°C, in the presence of 50 nM FITC-labelled proteins (amylin, CTR–1 or RAMP–3). Ex 480 nm, Em 520 nm, filter 515 nm. The raw data can be found in S2 File.

[4] = target: T2, human receptor-activity modifying protein 3 Extracellular Topological Domain (RAMP3-ETD), fluorescein-labelled (Homo sapiens, UniProt O60896); assay: Isothermal binding assay, fluorescence anisotropy, RAMP-3; settings: for Anisotropy: 50 nM labelled RAMP-3, PBS pH 7.4, 25°C, mean of five measurements
T2 construct: RAMP3-ETD; residues 28–117; UNIPROT identifier O60896; His tag (N); thrombin cleavage site (N); made in house; host or cells: E. coli BL21DE3pLys
T2 sequence (O60896 28-117): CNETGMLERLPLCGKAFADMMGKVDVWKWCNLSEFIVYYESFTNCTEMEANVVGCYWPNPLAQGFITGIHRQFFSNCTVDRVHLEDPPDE
From the text: The human receptor-activity modifying protein 3 Extracellular Topological Domain (RAMP3-ETD; residues 28–117; UNIPROT identifier O60896; Sequence in S1 File) was obtained by heterologous production in E. coli and further purified from inclusion bodies. The synthetic DNA sequence encoding the RAMP3-ETD of RAMP3 was cloned into bacterial protein expression vector pET28b (Novagen/EMD Millipore) from the synthetic gene using NdeI and EcoRI. The sequence and identity of the gene in the pET28b-RAMP3 construct was confirmed with DNA sequencing. The gene synthesis, cloning and sequencing services were provided by GenScript Corporation (Piscataway, NJ, USA).
RAMP3 was produced and purified as described previously for the homologous protein RAMP2 [56]. The RAMP3-ETD was produced as a fusion protein containing an N-terminal histidine tag and a thrombin protease cleavage site, by heterologous expression in E. coli BL21DE3pLys (1 mM IPTG, 37°C, 3 h). […] The purified RAMP3-ETD was refolded by rapid dilution into cold buffer 50 mM sodium phosphate buffer (pH 8.3) containing 1 M arginine hydrochloride, 5 mM reduced glutathione, 1 mM oxidized glutathione, and 1 mM EDTA and left stand for 24 h at 4°C. After refolding, RAMP3-ETD was dialyzed, concentrated in AMICON (Millipore, Brazil), and stored in 20 mM sodium phosphate buffer and 500 mM NaCl, pH 7.0, in liquid nitrogen until use. Purity was over 95% as judged by SDS-PAGE, routine size-exclusion chomatography and MALDI-ToF-MS. The purified RAMP3 was quantified by absorbance at 280 nm, using 21,345 M^-1cm^−1 as extinction coefficient.
as §1, §2, §3

[5] = (unit not given), Swiss male mice, s.c., 400 μg peptide/kg

PEGylated human amylin: human amylin monoconjugated at the N-terminal Lys1 region with 5 kDa methoxyl polyethylene glycol succinimidyl carbonate (mPEGsc5k) (KCNTATCATQRLANFLVHSSNNFGAILSSTNVGSNTY-NH2; disulfide 2-7; also: one mPEG 5 kDa (mPEGsc5k) on a Lys1 amino group)
Half Life (One phase decay, best-fit value) [1, 5]: 2.988 | Tau (One phase decay, best-fit value) [1, 5]: 4.311 | half-life in vivo ([1]; male, Swiss, mouse, in vivo, sc): 2.98 h | changes in ThT fluorescence in the 12 h time window [2]: did not observe changes in fluorescence | self-assembly with amylin (in words) ([3]; fluorescence anisotropy, 50 nM FITC-labelled protein): PEGylation did not abolish the assembly | Anisotropy ([3]; ligand 0.0492 µM): 0.0707 | Anisotropy ([3]; ligand 0.1229 µM): 0.0637 | Anisotropy ([3]; ligand 0.3072 µM): 0.0575 | Anisotropy ([3]; ligand 0.768 µM): 0.0698 | Anisotropy ([3]; ligand 1.92 µM): 0.0836 | Anisotropy ([3]; ligand 4.8 µM): 0.232 | Anisotropy ([3]; ligand 12 µM): 0.2936 | Anisotropy ([3]; ligand 30 µM): 0.27 | binding to coreceptor RAMP3 (in words) ([4]; fluorescence anisotropy, PBS pH 7.4, 25°C, 50 nM FITC-labelled protein): PEGylation did not abolish the assembly | Anisotropy ([4]; ligand 0.0492 µM): 0.0481 | Anisotropy ([4]; ligand 0.1229 µM): 0.0421 | Anisotropy ([4]; ligand 0.3072 µM): 0.0449 | Anisotropy ([4]; ligand 0.768 µM): 0.0486 | Anisotropy ([4]; ligand 1.92 µM): 0.0614 | Anisotropy ([4]; ligand 4.8 µM): 0.1188 | Anisotropy ([4]; ligand 12 µM): 0.2199 | Anisotropy ([4]; ligand 30 µM): 0.1286
